In paper PMC9282251:

T1: GFP-tagged Kif4A (human), O95239
T1 chain: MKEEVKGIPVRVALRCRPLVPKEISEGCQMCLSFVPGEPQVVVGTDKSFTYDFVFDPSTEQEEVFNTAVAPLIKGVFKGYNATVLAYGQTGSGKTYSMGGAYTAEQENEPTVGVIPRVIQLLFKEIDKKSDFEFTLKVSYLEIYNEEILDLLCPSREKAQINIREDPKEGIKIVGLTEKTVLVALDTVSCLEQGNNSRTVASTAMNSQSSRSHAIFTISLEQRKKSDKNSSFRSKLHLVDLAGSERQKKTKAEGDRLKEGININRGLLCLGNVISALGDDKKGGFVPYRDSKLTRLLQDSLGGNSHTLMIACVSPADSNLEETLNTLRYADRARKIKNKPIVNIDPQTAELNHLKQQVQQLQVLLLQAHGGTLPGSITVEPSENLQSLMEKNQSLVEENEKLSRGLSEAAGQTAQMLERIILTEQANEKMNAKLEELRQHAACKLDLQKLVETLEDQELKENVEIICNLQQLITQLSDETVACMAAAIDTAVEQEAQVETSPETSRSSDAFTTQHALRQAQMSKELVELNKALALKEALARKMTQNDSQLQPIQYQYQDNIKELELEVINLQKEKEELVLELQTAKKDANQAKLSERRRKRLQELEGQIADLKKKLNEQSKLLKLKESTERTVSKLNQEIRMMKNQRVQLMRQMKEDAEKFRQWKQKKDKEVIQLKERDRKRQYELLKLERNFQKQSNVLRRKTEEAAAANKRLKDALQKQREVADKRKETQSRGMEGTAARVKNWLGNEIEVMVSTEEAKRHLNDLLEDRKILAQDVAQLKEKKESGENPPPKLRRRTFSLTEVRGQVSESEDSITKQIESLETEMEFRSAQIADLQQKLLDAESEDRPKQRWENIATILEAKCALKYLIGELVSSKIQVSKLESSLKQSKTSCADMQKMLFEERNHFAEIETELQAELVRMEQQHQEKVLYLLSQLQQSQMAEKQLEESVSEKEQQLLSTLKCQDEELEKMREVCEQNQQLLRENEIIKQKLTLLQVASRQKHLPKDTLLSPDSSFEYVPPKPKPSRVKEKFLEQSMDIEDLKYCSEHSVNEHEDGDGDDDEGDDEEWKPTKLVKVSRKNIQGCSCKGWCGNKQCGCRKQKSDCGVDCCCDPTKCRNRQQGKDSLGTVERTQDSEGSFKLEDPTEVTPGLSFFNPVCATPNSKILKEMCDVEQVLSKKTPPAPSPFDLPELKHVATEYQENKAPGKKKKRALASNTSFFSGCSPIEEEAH

T2: Kif4A-mCherry (human), O95239
T2 chain: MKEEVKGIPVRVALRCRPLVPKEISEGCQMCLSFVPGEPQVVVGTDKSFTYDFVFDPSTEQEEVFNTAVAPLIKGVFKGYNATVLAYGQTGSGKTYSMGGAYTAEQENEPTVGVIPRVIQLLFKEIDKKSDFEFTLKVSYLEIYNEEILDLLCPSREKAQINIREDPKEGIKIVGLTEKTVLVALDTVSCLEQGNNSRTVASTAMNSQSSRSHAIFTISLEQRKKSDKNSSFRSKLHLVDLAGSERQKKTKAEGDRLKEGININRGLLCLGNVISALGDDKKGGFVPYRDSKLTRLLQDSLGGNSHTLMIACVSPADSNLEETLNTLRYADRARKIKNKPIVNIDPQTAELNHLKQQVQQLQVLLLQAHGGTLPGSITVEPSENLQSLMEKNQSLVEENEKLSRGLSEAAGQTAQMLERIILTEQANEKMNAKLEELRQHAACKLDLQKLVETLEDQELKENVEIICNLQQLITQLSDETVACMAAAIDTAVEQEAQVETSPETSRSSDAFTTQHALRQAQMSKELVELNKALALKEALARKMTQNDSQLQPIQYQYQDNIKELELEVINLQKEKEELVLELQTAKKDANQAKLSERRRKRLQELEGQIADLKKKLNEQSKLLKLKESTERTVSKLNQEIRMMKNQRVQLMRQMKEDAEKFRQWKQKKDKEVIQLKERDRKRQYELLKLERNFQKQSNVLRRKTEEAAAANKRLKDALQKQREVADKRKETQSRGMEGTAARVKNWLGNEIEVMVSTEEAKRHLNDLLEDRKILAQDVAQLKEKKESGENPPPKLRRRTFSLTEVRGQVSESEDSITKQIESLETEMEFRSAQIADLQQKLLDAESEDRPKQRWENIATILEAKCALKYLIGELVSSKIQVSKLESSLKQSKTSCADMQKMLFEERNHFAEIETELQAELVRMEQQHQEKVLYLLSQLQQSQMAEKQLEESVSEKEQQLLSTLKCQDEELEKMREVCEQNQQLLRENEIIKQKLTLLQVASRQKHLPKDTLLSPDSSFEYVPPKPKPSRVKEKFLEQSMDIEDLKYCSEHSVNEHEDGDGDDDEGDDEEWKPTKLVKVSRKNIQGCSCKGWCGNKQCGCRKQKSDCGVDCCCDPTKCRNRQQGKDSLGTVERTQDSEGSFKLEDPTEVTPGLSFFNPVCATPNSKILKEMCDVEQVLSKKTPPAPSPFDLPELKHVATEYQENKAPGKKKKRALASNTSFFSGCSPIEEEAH


Tests used:
[1] = biological target: T1, GFP-tagged Kif4A (human), O95239; assay: single-molecule photobleaching and fluorescence intensity analysis; settings: remark: other sources report otherwise
[2] = biological target: T2, Kif4A-mCherry (human), O95239; assay: as above; settings: remark: other sources report otherwise

| Binder | stoichiometry N [1] | stoichiometry N [2] |
| --- | --- | --- |
| GFP-tagged Kif4A, O95239 1-1232 (natural protein) MKEEVKGIPVRVALRCRPLVPKEISEGCQMCLSFVPGEPQVVVGTDKSFTYDFVFDPSTEQEEVFNTAVAPLIKGVFKGYNATVLAYGQTGSGKTYSMGGAYTAEQENEPTVGVIPRVIQLLFKEIDKKSDFEFTLKVSYLEIYNEEILDLLCPSREKAQINIREDPKEGIKIVGLTEKTVLVALDTVSCLEQGNNSRTVASTAMNSQSSRSHAIFTISLEQRKKSDKNSSFRSKLHLVDLAGSERQKKTKAEGDRLKEGININRGLLCLGNVISALGDDKKGGFVPYRDSKLTRLLQDSLGGNSHTLMIACVSPADSNLEETLNTLRYADRARKIKNKPIVNIDPQTAELNHLKQQVQQLQVLLLQAHGGTLPGSITVEPSENLQSLMEKNQSLVEENEKLSRGLSEAAGQTAQMLERIILTEQANEKMNAKLEELRQHAACKLDLQKLVETLEDQELKENVEIICNLQQLITQLSDETVACMAAAIDTAVEQEAQVETSPETSRSSDAFTTQHALRQAQMSKELVELNKALALKEALARKMTQNDSQLQPIQYQYQDNIKELELEVINLQKEKEELVLELQTAKKDANQAKLSERRRKRLQELEGQIADLKKKLNEQSKLLKLKESTERTVSKLNQEIRMMKNQRVQLMRQMKEDAEKFRQWKQKKDKEVIQLKERDRKRQYELLKLERNFQKQSNVLRRKTEEAAAANKRLKDALQKQREVADKRKETQSRGMEGTAARVKNWLGNEIEVMVSTEEAKRHLNDLLEDRKILAQDVAQLKEKKESGENPPPKLRRRTFSLTEVRGQVSESEDSITKQIESLETEMEFRSAQIADLQQKLLDAESEDRPKQRWENIATILEAKCALKYLIGELVSSKIQVSKLESSLKQSKTSCADMQKMLFEERNHFAEIETELQAELVRMEQQHQEKVLYLLSQLQQSQMAEKQLEESVSEKEQQLLSTLKCQDEELEKMREVCEQNQQLLRENEIIKQKLTLLQVASRQKHLPKDTLLSPDSSFEYVPPKPKPSRVKEKFLEQSMDIEDLKYCSEHSVNEHEDGDGDDDEGDDEEWKPTKLVKVSRKNIQGCSCKGWCGNKQCGCRKQKSDCGVDCCCDPTKCRNRQQGKDSLGTVERTQDSEGSFKLEDPTEVTPGLSFFNPVCATPNSKILKEMCDVEQVLSKKTPPAPSPFDLPELKHVATEYQENKAPGKKKKRALASNTSFFSGCSPIEEEAH | 2 | – |
| Kif4A-mCherry, O95239 1-1232 (natural protein) MKEEVKGIPVRVALRCRPLVPKEISEGCQMCLSFVPGEPQVVVGTDKSFTYDFVFDPSTEQEEVFNTAVAPLIKGVFKGYNATVLAYGQTGSGKTYSMGGAYTAEQENEPTVGVIPRVIQLLFKEIDKKSDFEFTLKVSYLEIYNEEILDLLCPSREKAQINIREDPKEGIKIVGLTEKTVLVALDTVSCLEQGNNSRTVASTAMNSQSSRSHAIFTISLEQRKKSDKNSSFRSKLHLVDLAGSERQKKTKAEGDRLKEGININRGLLCLGNVISALGDDKKGGFVPYRDSKLTRLLQDSLGGNSHTLMIACVSPADSNLEETLNTLRYADRARKIKNKPIVNIDPQTAELNHLKQQVQQLQVLLLQAHGGTLPGSITVEPSENLQSLMEKNQSLVEENEKLSRGLSEAAGQTAQMLERIILTEQANEKMNAKLEELRQHAACKLDLQKLVETLEDQELKENVEIICNLQQLITQLSDETVACMAAAIDTAVEQEAQVETSPETSRSSDAFTTQHALRQAQMSKELVELNKALALKEALARKMTQNDSQLQPIQYQYQDNIKELELEVINLQKEKEELVLELQTAKKDANQAKLSERRRKRLQELEGQIADLKKKLNEQSKLLKLKESTERTVSKLNQEIRMMKNQRVQLMRQMKEDAEKFRQWKQKKDKEVIQLKERDRKRQYELLKLERNFQKQSNVLRRKTEEAAAANKRLKDALQKQREVADKRKETQSRGMEGTAARVKNWLGNEIEVMVSTEEAKRHLNDLLEDRKILAQDVAQLKEKKESGENPPPKLRRRTFSLTEVRGQVSESEDSITKQIESLETEMEFRSAQIADLQQKLLDAESEDRPKQRWENIATILEAKCALKYLIGELVSSKIQVSKLESSLKQSKTSCADMQKMLFEERNHFAEIETELQAELVRMEQQHQEKVLYLLSQLQQSQMAEKQLEESVSEKEQQLLSTLKCQDEELEKMREVCEQNQQLLRENEIIKQKLTLLQVASRQKHLPKDTLLSPDSSFEYVPPKPKPSRVKEKFLEQSMDIEDLKYCSEHSVNEHEDGDGDDDEGDDEEWKPTKLVKVSRKNIQGCSCKGWCGNKQCGCRKQKSDCGVDCCCDPTKCRNRQQGKDSLGTVERTQDSEGSFKLEDPTEVTPGLSFFNPVCATPNSKILKEMCDVEQVLSKKTPPAPSPFDLPELKHVATEYQENKAPGKKKKRALASNTSFFSGCSPIEEEAH | – | 2 |
